From the nanobody polyreactivity screen of Harvey et al. (2022)

assay: yeast display, Sf9 membrane polyspecificity reagent, FACS + sequencing; frameworks hold sequencing errors
How it was run: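 Using colony PCR, genes from sorted yeast display clones were amplified, then sequenced on MiSeq at 2 × 250 and filtered by CDR length. The clones had been stained with 10% biotinylated, detergent-solubilized Sf9 membrane reagent for 1 hour at 4 °C and sorted by FACS into low and high (top ~1%) gates on anti-HA and streptavidin fluorescence. Polyreactivity labels come from the gate of origin.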

| Sequence | polyreactivity (PSR sort gate) |
| --- | --- |
| QVQLVESGGGLVQAGGSLRLSCAASGITFRSYAMGWYRQAPGKERELVATISWSGGITYYADSVKGRFTISRDNAKNTVYLQMNSLKPEDTAVYYCAKASQSWGRDDYYYWGQGTQVTVSS | low polyreactivity |
| QVQLVESGGGLVQAGGSLRLSCAASGITFRTNTMGWSRQAPGKERELVAAITWDGGSTYYADSVKGRFTISRDNAKNTVYLQMNSLKPEDTAVYYCAARLSYLYGLYPYYYWGQGTQVTVSS | high polyreactivity |
| QVQLVESGGGLVQAGGSLRLSCAASGITFRTYAMGWYRQAPGKERELVAAISSRGGSTYYADSVKGRFTISRDNAKNTVYLQMNSLKPEDTAVYYCNARDVRYYEYGYWGQGTQVTVSS | high polyreactivity |
| QVQLVESGGGLVQAGGSLRLSCAASGITFRYNAMGWYRQAPGKERELVAAITFSGGSTYYADSVKGRFTISRDNAKNTVDLQMNSLKPEDTAVYYCAKLGSTSSRGNYDYWGQGTQVTVSS | low polyreactivity |
| QVQLVESGGGLVQAGGSLRLSCAASGITFRYYAMGRYRQAPGKERELVAAITRSGSTTYADSVKGRFTISRDNAKNTVYLQMNSLKPVDTAVYYCAVDYYYLTGGVDYWGQGTQVTVSS | low polyreactivity |
| QVQLVESGGGLVQAGGSLRLSCAASGITFRYYAMGWSRQAPGKERELVADITRSGGTTYYADSVKGRFTISRDNAKNTVYLQMNSLKPEDSAVYYCAVDLNWWGWGLLQYDYWGQGTQVTVSS | high polyreactivity |
| QVQLVESGGGLVQAGGSLRLSCAASGITFRYYAMGWYRPAPRKERELVAVISTSGGSTYYADSVKGRFTISRDNAKNTVYLQMNSLKPEDTAVYYCAARYSRSRRYRMDYWGQGTQVTVSS | high polyreactivity |
| QVQLVESGGGLVQAGGSLRLSCAASGITFRYYAMGWYRQAPGKERELVAAISSGGGTYYADSVKGRFTISRDNAKNTVYLQMNSLKPEDTAVYYCNVLRLYPSMDYWGQGTQVTVSS | high polyreactivity |
| QVQLVESGGGLVQAGGSLRLSCAASGITFSFYAMGWYRQAPGKERELVAGITRSGGDTYYADSVKGRFTISRDNAKNTVYLQMNSLKPEDTAVYYCAAAWFFYRRQYTFFAGRMDYWGQGTQVTVSS | high polyreactivity |
| QVQLVESGGGLVQAGGSLRLSCAASGITFSGNAMGWYRQAPGKERELVAAISRNGGRTYYADSVKGRFTISRDNAKNTVYLQMNSLKPEDTAVYYCAKDAYGYSRVSAWYYTYDYWGQGTQVTVSS | high polyreactivity |
| QVQLVESGGGLVQAGGSLRLSCAASGITFSGNAMGWYRQAPGKERELVATISQSGGSTYYADSVKGRFTISRDNAKNTVYLQMNSLKPEDTAVYYCNVNLQGRYSDKYDYWGQGTQVTVSS | high polyreactivity |
| QVQLVESGGGLVQAGGSLRLSCAASGITFSGYAMGWYRQAPGKERDFVAGISYSGGSTYYADSVKGRFTISRDNAKNTVYLQMNSLKPEDTAVYYCAAYFGHYWRYYYWGQGTQVTVSS | high polyreactivity |
| QVQLVESGGGLVQAGGSLRLSCAASGITFSKYAMGWYRQAPGKERELVAAITRSGGSTYYADSVKGRFTISRDNAKNTVYLQMNSLKPEDTAVYYCNARGYVTGGDGGYGYWGQGTQVTVSS | high polyreactivity |
| QVQLVESGGGLVQAGGSLRLSCAASGITFSLYAMGWYRQAPGKERELVAAITRSGGSTYYADSVKGRFTISRDNAKNTVYLQMNSLKPEDTAVYYCAAKRPGVRRYYYWGQGTQVTVSS | high polyreactivity |
| QVQLVESGGGLVQAGGSLRLSCAASGITFSLYAMGWYRQAPGKERELVAAITRSGGSTYYADSVKGRFTISRDNAKNTVYLQMNSLKPEDTAVYYCAAQRPGVRRYYYWGQGTQVTVSS | high polyreactivity |
| QVQLVESGGGLVQAGGSLRLSCAASGITFSNYAMGWYRQAPGKERELVAAITLSGGRTYYADSVKGRFTISRDNAKNTVYLQMNSLKPEDTAVYYCAAGRTRRPLGGTTKYYYWGQGTQVTVSS | high polyreactivity |
| QVQLVESGGGLVQAGGSLRLSCAASGITFSPYTMGWYRQAPGKERELVAAINDGAITYYADSVKGRFTISRDNAKNTVYLQMNSLKPEDTAVFYCAAAAWGTDPFSTDYATYDYWGQVTQVTVSS | low polyreactivity |
| QVQLVESGGGLVQAGGSLRLSCAASGITFSQYAMGWYTQAPGKERELVASISEGDGTNYADSVKGRFTISRDNAKNTVYLQMNSLKPEDTAVYYCAAPRPYYWSRRYYRAFDYWGQGTQVTVSS | high polyreactivity |
| QVQLVESGGGLVQAGGSLRLSCAASGITFSRYAMGWYRQAPGKERELVAAITWDGGRTYYADSVKGRFTISRDNAKNTVYLQMNSLKPEDTAVYYCAAGSAWWYYWGQGTQVTVSS | high polyreactivity |
| QVQLVESGGGLVQAGGSLRLSCAASGITFSSYAMGWYRQAPGKEMELVAAISYGGGNTYYADSVKGRFTISRDNAKNTVYLQMNSLKPEDTSVYYCNTLYTSYSGLDYWGQGTQVTVSS | high polyreactivity |
| QVQLVESGGGLVQAGGSLRLSCAASGITFSVNTMGWYRQAPGKERELVAAITSAGGTYYADSVKGRFTISRDNAKNTVYLQMNSQKPEDTAVYYCAAANFRSYLSQTGPRAYYYWGQGTQVTVSS | low polyreactivity |

| Sequence | polyreactivity (PSR sort gate) |
| --- | --- |
| QVQLVESGGGLVQAGGSLRLSCAASGITFSYAMGWYRQAPGKERELVAGITTSGGSTYADSVKGRFTISRDNAKNTVYLQMNSLKPEDTAVYYCAADRSAVQFSAFLEYDYWGQGTQVTVSS | low polyreactivity |
| QVQLVESGGGLVQAGGSLRLSCAASGITFSYNAMGWSRQAPGKERELVAAIRVGDGSTYYADSVKGRFTISRDNAKNTVYLQMNSLKPEDTAVYYCNARYLRLRYPYTDEYNYWGQGTQVTVSS | low polyreactivity |
| QVQLVESGGGLVQAGGSLRLSCAASGITFSYNAMGWYRQAPGKERELVAAISDIGGSTYYADSVKGRFTISRDNAKNTVYLQMNSLKPEDTAVYYCAADEYYQDESDYWGQGTQVTVSS | low polyreactivity |
| QVQLVESGGGLVQAGGSLRLSCAASGITFTENVMGWYRQAPGKERELVAGISRSGGITYYADSVKGRFTISRDNAKNTVYLQMNSLKPEDTAVYYCAAEEAYRSRRGGFDYWGQGTQVTVSS | high polyreactivity |
| QVQLVESGGGLVQAGGSLRLSCAASGITFTFNAMGWYRQAPGKERELVAAITWSGGSTFYADSVKGRFTITRDNAKNTVYLQMNSLKPEDTAVYYCARDTELYVRWLDYWGQGTQVTVSS | low polyreactivity |
| QVQLVESGGGLVQAGGSLRLSCAASGITFTGYAMGWYRQAPGKERELVAAITSGGGRTYYADSVKGRFTISRDNAKNTVYLQMNSLKPEDTAVYYCATRYVTIVGYDYWGQGTQVTVSS | high polyreactivity |
| QVQLVESGGGLVQAGGSLRLSCAASGITFTIYAMGCNRQAPGKERELVAAITWTSDITHYADSVKGRVTISRDNAKNTDYLQMNSLKPEDTAVYYCGATTWDEYDYWGQGTQVTVSW | high polyreactivity |
| QVQLVESGGGLVQAGGSLRLSCAASGITFTRNVMGWYRQAPGKERELVAAISGSGGSTYYADSVKGRFTISRDNAKNTFYLQMNSLKPEDTAVYYCAARSRGGRRYDYWGQGTQVTVSS | high polyreactivity |
| QVQLVESGGGLVQAGGSLRLSCAASGITFTSYAMGWYRQAPGKERELVAAISSSGVRTYYADSVKGRFTISRDNAKNTVYLQMNSLKPEDTAVYYCATRRRVLYGYDYWGQGTQVTVSS | high polyreactivity |
| QVQLVESGGGLVQAGGSLRLSCAASGITFTSYAMGWYRQATGKERELVAAITSSGSSTYYADSVKGRFTISRDNAKNTVYLQMNSLKPEDTAVYYCAAKHVGWYVQEEDYWGQGTQVTVSS | low polyreactivity |
| QVQLVESGGGLVQAGGSLRLSCAASGITFTSYVMGWYRQAPGKERELVAAIRWSGGRTYYADSVKGRFTISRDNAKNTVYLQLNSLKPEDTAVYYCNRVTRSHVDYWGQGTQVTVSS | high polyreactivity |
| QVQLVESGGGLVQAGGSLRLSCAASGITFTVNAMGWYRQSPGKERELVAAISWSGGSTYYADSVKGRFTISRDNAKNTVYLQMNSLKPEDTAVYYCNAVLYRFAYNYWGQGTQVTVSS | low polyreactivity |
| QVQLVESGGGLVQAGGSLRLSCAASGITFTVYAMGWYRQAPGKERELVAAISQSGGSTYYADSVKGRFTISRDNAKNTVYLQMNSLNPEYTAVYDCNSDTVWGPYRSYIPFDYWGQGTQVNVSS | low polyreactivity |
| QVQLVESGGGLVQAGGSLRLSCAASGITFTWYAMGWYRQAPGKERELVAAISGGGSTYYVDSVKGRFTISRDNAKNTVYLQMNSLKPEDTAVYYCAARYSWTRRTMYYWGQGTQVTVSS | high polyreactivity |
| QVQLVESGGGLVQAGGSLRLSCAASGITFVAYAMGWYRQAPGKERELVAAISKSGGNTYYADSVKGRFTISRDNAKNTVYLQMNSLKPEDTAVYYCAAPRRYAWGQVNYWGQGTQVTVSS | high polyreactivity |
| QVQLVESGGGLVQAGGSLRLSCAASGITFVGNAMGWYRQAPGKERELVAGIRGNGGSTYYADSVKGRFTISRDNAKNTVYLQMNSLKPEDTAVYYCAAAAYYADFDYWGQGTQVTVSS | low polyreactivity |
| QVQLVESGGGLVQAGGSLRLSCAASGITFVGNDMGWYRQAPGKERELVATISSSGTRTYYADSVKGRFTISRDNAKNTVYLLMNSLKPEDTAVYYCAARWRSYITYWFDYWGQGTQVTVSS | low polyreactivity |
| QVQLVESGGGLVQAGGSLRLSCAASGITFVRNAMGWYRQAPGKEREFVAAISWSGGSTYYADSVKGRFTISRDNAKNTVYLQMNSLKPEDTAVYYCAKRSRGVKYDYWGQGTQVTVSS | high polyreactivity |
| QVQLVESGGGLVQAGGSLRLSCAASGITFVRNAMGWYRQAPGKERELVAAITSRGGITYYADSVKGRFTISRDNAKNTVYLQMNSLKPEDTAVYYCNKTRGYAVNGYNYWGQGTQVTVSS | high polyreactivity |
| QVQLVESGGGLVQAGGSLRLSCAASGITFVRYAMGWYRQAPGKEREFVAAINSIVGRTYYADSVKGRFTISRDNAKNTVYLQMNSLKPEDTAVYYCAADSNVRYGMDYWGQGTQVTVSS | low polyreactivity |
